B1: CPEB3 Ribozyme (parent)
chain: GGGGGCCACAGCAGAAGCGUUCACGUCGCGGCCCCUGUCAGAUUCUGGUGAAUCUGCGAAUUCUGCUGU

Variants of: B1
Assay: self-cleavage, relative activity (ratio to wild type); higher = more cleavage; co-transcriptional
G11C G50U showed a self-cleavage of 0.867.
Variant G11C G50A has a self-cleavage of 0.826.
In the case of G11C G28C, the self-cleavage is reported as 0.137.
For G11C G28A, the self-cleavage was 0.0877.
In the case of G11C G28U, the self-cleavage is reported as 0.137.
For G11A U69G, the self-cleavage was 1.01.
For G11A U69A, the self-cleavage was 0.973.
Variant G11C C29U has a self-cleavage of 0.12.
With G11C C29A the self-cleavage was 0.181.
Variant G11C C29G has a self-cleavage of 0.139.
For G11C U36G, the self-cleavage was 0.18.
With G11C U36A the self-cleavage was 0.0623.
G11C U36C gave a self-cleavage of 0.62.
G11C A15U showed a self-cleavage of 0.188.
For G11C A15C, the self-cleavage was 0.497.
Variant G11A G14C has a self-cleavage of 0.267.
Work on G11A G14A yielded a self-cleavage of 0.119.
Variant G11C A52C has a self-cleavage of 0.551.
G11C A52U gave a self-cleavage of 0.628.
G11C A52G showed a self-cleavage of 0.838.
G11A G25C showed a self-cleavage of 0.103.
With G11A G25U the self-cleavage was 0.176.
Work on G11A U46A yielded a self-cleavage of 0.932.
G11A U46G showed a self-cleavage of 0.93.
G11A U46C gave a self-cleavage of 0.91.
With G11A G31C the self-cleavage was 0.155.
G11A G31U gave a self-cleavage of 0.599.
With G11A C54A the self-cleavage was 0.368.
G11A C54G showed a self-cleavage of 0.426.
For G11A C54U, the self-cleavage was 0.886.
With G11C U67A the self-cleavage was 0.897.
G11C U67G showed a self-cleavage of 0.93.
With G11C U67C the self-cleavage was 0.92.
With G11U G17U the self-cleavage was 0.148.
G11U G17C showed a self-cleavage of 0.129.
Variant G11U G17A has a self-cleavage of 0.141.
G11A gave a self-cleavage of 0.932.
For G11C, the self-cleavage was 0.872.
For G11U, the self-cleavage was 0.905.
With G11A C29U the self-cleavage was 0.0741.
Variant G11A C29G has a self-cleavage of 0.148.
G11A C29A gave a self-cleavage of 0.26.
G11U C29G showed a self-cleavage of 0.149.
For G11U C29A, the self-cleavage was 0.202.
G11U C29U showed a self-cleavage of 0.142.
G11A C63G showed a self-cleavage of 0.493.
G11A C63A gave a self-cleavage of 0.75.
G11C U55C gave a self-cleavage of 0.243.
Work on G11U A59G yielded a self-cleavage of 0.901.
Variant G11U C18U has a self-cleavage of 0.372.
With G11U C18G the self-cleavage was 0.0807.
Work on G11U C18A yielded a self-cleavage of 0.0522.
For G11U G65C, the self-cleavage was 0.574.
G11U G65U showed a self-cleavage of 0.68.
G11C C32U showed a self-cleavage of 0.82.
G11C C32A gave a self-cleavage of 0.601.
For G11C C32G, the self-cleavage was 0.17.
In the case of G11U G68U, the self-cleavage is reported as 0.856.
Work on G11U G68C yielded a self-cleavage of 0.943.
Variant G11U C27A has a self-cleavage of 0.16.
In the case of G11U C27G, the self-cleavage is reported as 0.134.
For G11U C27U, the self-cleavage was 0.148.
G11A U53G showed a self-cleavage of 0.622.
G11A U53C showed a self-cleavage of 0.352.
Variant G11U U20G has a self-cleavage of 0.121.
G11U U20C showed a self-cleavage of 0.131.
For G11U U20A, the self-cleavage was 0.119.
G11C G65U showed a self-cleavage of 0.53.
In the case of G11C G65C, the self-cleavage is reported as 0.409.
In the case of G11C U44A, the self-cleavage is reported as 0.636.
Work on G11C G58A yielded a self-cleavage of 0.82.
In the case of G11C C12A, the self-cleavage is reported as 0.653.
Variant G11A A16U has a self-cleavage of 0.352.
G11A A16C gave a self-cleavage of 0.0873.
In the case of G11A A16G, the self-cleavage is reported as 0.575.
A10U U69A showed a self-cleavage of 1.02.
Variant G11C C27A has a self-cleavage of 0.177.
Variant G11C C27U has a self-cleavage of 0.0897.
G11C U53C showed a self-cleavage of 0.28.
With G11C U53A the self-cleavage was 0.381.
With G11U G58C the self-cleavage was 0.857.
For G11U G58A, the self-cleavage was 0.846.
G11U G58U gave a self-cleavage of 0.891.

Source: the RNAGym collection of RNA variant scans (doi:10.7554/elife.80360)
